# Measurements reported in patent publication EP4696329A1 (BioRay Pharmaceutical Co., Ltd., dated 2024).
# Key:
# [1] = molecular target: T1, human ROR1 expressed on cells (MDA-MB-231, Jeko-1, PA-1, HCC1187) (human, UniProt Q01973 30-937); test: cell-based or functional assay
# [2] = molecular target: T1, human ROR1 expressed on cells …; test: flow cytometry on PA-1 cells
# [3] = molecular target: T1, human ROR1 expressed on cells …; test: flow cytometry on Jeko-1 cells
# [4] = molecular target: human ROR2 protein (hROR2, Kactus Biosystems, Cat. No. ROR-HM402) (human, UniProt Q01974 34-403, limits assumed); test: ELISA, plate coated with hROR2
# [5] = molecular target: T1, human ROR1 expressed on cells …; test: flow cytometry on MDA-MB-231 cells
# [6] = molecular target: T2, human ROR1 protein (recombinant ROR1 antigen, Kactus Biosystems) (human, UniProt Q01973 30-406, limits assumed); test: binding to ROR1 (column 'Binding to ROR1'; method not described)
# [7] = molecular target: T2, human ROR1 protein (recombinant ROR1 …); test: BLI (Octet R8), antibody captured on AHC sensor, ROR1 antigen as analyte
# Chain of human ROR2 protein (hROR2, Kactus Biosystems, Cat. No. ROR-HM402) (Q01974 34-403 limits assumed): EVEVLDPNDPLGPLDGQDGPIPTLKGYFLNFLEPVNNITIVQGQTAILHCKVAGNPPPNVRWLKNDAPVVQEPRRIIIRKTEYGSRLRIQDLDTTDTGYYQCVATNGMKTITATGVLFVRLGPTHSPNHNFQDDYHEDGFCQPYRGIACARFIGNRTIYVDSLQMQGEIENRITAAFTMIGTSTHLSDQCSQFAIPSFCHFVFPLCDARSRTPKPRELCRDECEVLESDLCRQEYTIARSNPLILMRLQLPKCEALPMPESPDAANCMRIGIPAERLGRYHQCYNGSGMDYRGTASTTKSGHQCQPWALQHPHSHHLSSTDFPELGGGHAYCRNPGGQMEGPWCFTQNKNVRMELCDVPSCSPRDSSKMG
# T1 sequence (Q01973 30-937 limits assumed): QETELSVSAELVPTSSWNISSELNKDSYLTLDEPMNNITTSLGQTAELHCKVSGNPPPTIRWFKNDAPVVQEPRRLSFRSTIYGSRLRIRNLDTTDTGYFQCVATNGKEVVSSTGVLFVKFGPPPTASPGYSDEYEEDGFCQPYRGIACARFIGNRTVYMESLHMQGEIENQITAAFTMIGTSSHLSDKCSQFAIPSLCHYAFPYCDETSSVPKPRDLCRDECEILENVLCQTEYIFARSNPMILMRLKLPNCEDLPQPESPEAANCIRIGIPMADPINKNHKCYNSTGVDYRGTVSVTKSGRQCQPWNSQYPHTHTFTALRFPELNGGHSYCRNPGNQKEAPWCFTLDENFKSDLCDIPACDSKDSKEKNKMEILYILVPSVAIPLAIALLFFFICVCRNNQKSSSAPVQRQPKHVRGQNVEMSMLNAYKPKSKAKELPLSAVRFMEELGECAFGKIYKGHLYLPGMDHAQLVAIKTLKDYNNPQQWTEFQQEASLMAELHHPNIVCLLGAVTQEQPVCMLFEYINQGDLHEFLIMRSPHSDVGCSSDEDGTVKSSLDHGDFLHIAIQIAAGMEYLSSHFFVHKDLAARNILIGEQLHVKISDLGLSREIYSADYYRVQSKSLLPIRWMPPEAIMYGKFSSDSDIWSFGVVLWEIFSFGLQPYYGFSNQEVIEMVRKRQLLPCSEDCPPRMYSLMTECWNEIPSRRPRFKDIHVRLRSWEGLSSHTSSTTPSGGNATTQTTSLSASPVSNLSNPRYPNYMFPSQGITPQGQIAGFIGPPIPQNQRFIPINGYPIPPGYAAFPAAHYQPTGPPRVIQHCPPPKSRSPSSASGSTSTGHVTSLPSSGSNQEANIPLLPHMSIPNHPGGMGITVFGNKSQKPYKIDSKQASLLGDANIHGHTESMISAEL
# T2 sequence (Q01973 30-406 limits assumed): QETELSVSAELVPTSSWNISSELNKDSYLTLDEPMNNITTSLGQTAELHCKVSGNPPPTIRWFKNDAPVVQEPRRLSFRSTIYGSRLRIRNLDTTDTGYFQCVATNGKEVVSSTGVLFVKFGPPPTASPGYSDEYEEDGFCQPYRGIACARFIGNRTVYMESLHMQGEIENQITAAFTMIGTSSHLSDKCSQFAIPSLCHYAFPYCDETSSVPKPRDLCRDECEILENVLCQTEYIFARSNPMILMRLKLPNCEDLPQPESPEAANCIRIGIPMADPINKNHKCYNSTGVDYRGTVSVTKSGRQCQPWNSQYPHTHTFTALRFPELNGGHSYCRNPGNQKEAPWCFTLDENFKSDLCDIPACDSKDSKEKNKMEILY
Binder,inhibitory IC50 against the proliferation of HCC1187 cells (CellTiterGlo2) [1] [nM],inhibitory IC50 against the proliferation of Jeko1 cells (CellTiterGlo2) [1] [nM],inhibitory IC50 against the proliferation of PA-1 cells (CellTiterGlo2) [1] [nM],binding result [4],EC50 [5] [µg/mL],EC50 [6] [µg/mL],Kd [7] [nM],also measured
"ADC-3 (KIH YR8/ZH3 conjugated to LD-14) (bispecific antibody, human IgG1, kappa, linker-drug LD-14 (eribulin) on cysteine sulfhydryls of reduced disulfides; average DAR between 3.7 and 4.3) heavy 1: not shown light 1: EIVLTQSPATLSLSPGERATLSCSASSQVSYIHWYQQKPGQAPRPWIYETSKLASGIPARFSGSGSGTDYTLTISSLEPEDFAVYYCQQWNYPLITFGQGTKLEIKRTVAAPSVFIFPPSDEQLKSGTASVVCLLNNFYPREAKVQWKVDNALQSGNSQESVTEQDSKDSTYSLSSTLTLSKADYEKHKVYACEVTHQGLSSPVTKSFNRGEC heavy 2: not shown light 2: DIQMTQSPSAMSASVGDRVTITCKASQDIYSYLSWFQQKPGKVPKTLIYRANRLVRGVPSRFSGSGSGQEYTLTISSLQPEDMATYYCLQYDEFPYTFGQGTKLEIKRTVAAPSVFIFPPSDEQLKSGTASVVCLLNNFYPREAKVQWKVDNALQSGNSQESVTEQDSKDSTYSLSSTLTLSKADYEKHKVYACEVTHQGLSSPVTKSFNRGEC",0.014,0.018,0.032,,,,,
"KIH YR8/ZH3, an ROR1-targeting biepitopic antibody (bispecific antibody, human IgG1, kappa, chain 1: YR-8-ES arm with Fc knob (T366W); chain 3: AM3-ZH3 arm with Fc hole (T366S, L368A, Y407V); made by reduction and mixing of YR-8-ES variant 1 and AM3-ZH3 variant 1) heavy 1: not shown light 1: EIVLTQSPATLSLSPGERATLSCSASSQVSYIHWYQQKPGQAPRPWIYETSKLASGIPARFSGSGSGTDYTLTISSLEPEDFAVYYCQQWNYPLITFGQGTKLEIKRTVAAPSVFIFPPSDEQLKSGTASVVCLLNNFYPREAKVQWKVDNALQSGNSQESVTEQDSKDSTYSLSSTLTLSKADYEKHKVYACEVTHQGLSSPVTKSFNRGEC heavy 2: not shown light 2: DIQMTQSPSAMSASVGDRVTITCKASQDIYSYLSWFQQKPGKVPKTLIYRANRLVRGVPSRFSGSGSGQEYTLTISSLQPEDMATYYCLQYDEFPYTFGQGTKLEIKRTVAAPSVFIFPPSDEQLKSGTASVVCLLNNFYPREAKVQWKVDNALQSGNSQESVTEQDSKDSTYSLSSTLTLSKADYEKHKVYACEVTHQGLSSPVTKSFNRGEC",,,,,,,,EC50 [2]: 0.41 nM; MFI fold [2]: 7 fold; EC50 [3]: 0.19 nM; MFI fold [3]: 8.2 fold
"ADC-4 (KIH YR8/ZH3 conjugated to LD-1) (bispecific antibody, human IgG1, kappa, linker-drug LD-1 (MMAE) on cysteine sulfhydryls of reduced disulfides; average DAR between 3.7 and 4.3) heavy 1: not shown light 1: EIVLTQSPATLSLSPGERATLSCSASSQVSYIHWYQQKPGQAPRPWIYETSKLASGIPARFSGSGSGTDYTLTISSLEPEDFAVYYCQQWNYPLITFGQGTKLEIKRTVAAPSVFIFPPSDEQLKSGTASVVCLLNNFYPREAKVQWKVDNALQSGNSQESVTEQDSKDSTYSLSSTLTLSKADYEKHKVYACEVTHQGLSSPVTKSFNRGEC heavy 2: not shown light 2: DIQMTQSPSAMSASVGDRVTITCKASQDIYSYLSWFQQKPGKVPKTLIYRANRLVRGVPSRFSGSGSGQEYTLTISSLQPEDMATYYCLQYDEFPYTFGQGTKLEIKRTVAAPSVFIFPPSDEQLKSGTASVVCLLNNFYPREAKVQWKVDNALQSGNSQESVTEQDSKDSTYSLSSTLTLSKADYEKHKVYACEVTHQGLSSPVTKSFNRGEC",1.2,46.6,4.2,,,,,
"ADC-6 (UC961 conjugated to LD-14) (antibody, human IgG1, kappa, V domains shown, linker-drug LD-14 (eribulin) on cysteine sulfhydryls of reduced disulfides; drug loading 3.7-4.3 per antibody) VH: QVQLQESGPGLVKPSQTLSLTCTVSGYAFTAYNIHWVRQAPGQGLEWMGSFDPYDGGSSYNQKFKDRLTISKDTSKNQVVLTMTNMDPVDTATYYCARGWYYFDYWGHGTLVTVSS VL: DIVMTQTPLSLPVTPGEPASISCRASKSISKYLAWYQQKPGQAPRLLIYSGSTLQSGIPPRFSGSGYGTDFTLTINNIESEDAAYYFCQQHDESPYTFGEGTKVEIKR",0.24,2.08,0.36,,,,,
"ADC-7 (UC961 conjugated to LD-1) (antibody, human IgG1, kappa, V domains shown, linker-drug LD-1 (MMAE) on cysteine sulfhydryls of reduced disulfides; drug loading 3.7-4.3 per antibody) VH: QVQLQESGPGLVKPSQTLSLTCTVSGYAFTAYNIHWVRQAPGQGLEWMGSFDPYDGGSSYNQKFKDRLTISKDTSKNQVVLTMTNMDPVDTATYYCARGWYYFDYWGHGTLVTVSS VL: DIVMTQTPLSLPVTPGEPASISCRASKSISKYLAWYQQKPGQAPRLLIYSGSTLQSGIPPRFSGSGYGTDFTLTINNIESEDAAYYFCQQHDESPYTFGEGTKVEIKR",15.4,76.3,15.1,,,,,
"ADC-5 (AM3-ZH3 conjugated to LD-1) (antibody, human IgG1, kappa, V domains shown, linker-drug LD-1 (MMAE) on cysteine sulfhydryls of reduced disulfides; average DAR between 3.7 and 4.3) VH: EVQLVESGGGLVQPGGSLRLSCAASGFTFSSYPMSWVRQAPGKGLEWVSSISTGASAYFPDSVKGRFTISRDNAKNSLYLQMNSLRAEDTAVYYCARITTSTWYMDVWGQGTTVTVSS VL: DIQMTQSPSAMSASVGDRVTITCKASQDIYSYLSWFQQKPGKVPKTLIYRANRLVRGVPSRFSGSGSGQEYTLTISSLQPEDMATYYCLQYDEFPYTFGQGTKLEIKR",6.3,65.1,17.8,,,,,
"ADC-2 (AM3-ZH3 conjugated to LD-14) (antibody, human IgG1, kappa, V domains shown, linker-drug LD-14 (eribulin) on cysteine sulfhydryls of reduced disulfides; average DAR between 3.7 and 4.3) VH: EVQLVESGGGLVQPGGSLRLSCAASGFTFSSYPMSWVRQAPGKGLEWVSSISTGASAYFPDSVKGRFTISRDNAKNSLYLQMNSLRAEDTAVYYCARITTSTWYMDVWGQGTTVTVSS VL: DIQMTQSPSAMSASVGDRVTITCKASQDIYSYLSWFQQKPGKVPKTLIYRANRLVRGVPSRFSGSGSGQEYTLTISSLQPEDMATYYCLQYDEFPYTFGQGTKLEIKR",0.09,0.285,0.017,,,,,
"AM3-ZH7 (antibody, human IgG1, kappa, V domains shown) VH: EVQLVESGGGLVQPGGSLRLSCAASGFTFSSYAMSWVRQAPGKGLEWVSSISTGASAYFPDSVKGRFTISRDNAKNSLYLQMNSLRAEDTAVYYCARITTSTWYMDVWGQGTTVTVSS VL: DIQMTQSPSAMSASVGDRVTITCKASQDIYSYLSWFQQKPGKVPKTLIYRANRLVRGVPSRFSGSGSGQEYTLTISSLQPEDMATYYCLQYDEFPYTFGQGTKLEIKR",,,,no binding (tested: starting from 333.33 nM),0.0101,0.0115,8.5,
"AM3-ZH1 (antibody, human IgG1, kappa, V domains shown) VH: EVQLVESGGGLVQPGGSLRLSCAASGFTFSSYPMSWVRQAPGKGLEWVSSISTGASAYFPDSVKGRFTISRDNAKNSLYLQMNSLRAEDTAVYYCARYTTSTWYFDVWGQGTTVTVSS VL: DIQMTQSPSAMSASVGDRVTITCKASQDIYSYLSWFQQKPGKVPKTLIYRANRLVRGVPSRFSGSGSGQEYTLTISSLQPEDMATYYCLQYDEFPYTFGQGTKLEIKR",,,,binds,0.0169,0.0127,7.9,
"AM3-ZH5 (antibody, human IgG1, kappa, V domains shown) VH: EVQLVESGGGLVQPGGSLRLSCAASGFTFSSYAMSWVRQAPGKGLEWVSSISTGASAYFPDSVKGRFTISRDNAKNSLYLQMNSLRAEDTAVYYCARITTSTWYMDVWGQGTTVTVSS VL: DIQMTQSPSAMSASVGDRVTITCKASQDIFSYLSWFQQKPGKVPKTLIYRANRLVSGVPSRFSGSGSGQEYTLTISSLQPEDMATYYCLQYDEFPYTFGQGTKLEIKR",,,,no binding (tested: starting from 333.33 nM),0.0148,0.0124,10,
"AM3-ZH4 (antibody, human IgG1, kappa, V domains shown) VH: EVQLVESGGGLVQPGGSLRLSCAASGFTFSSYAMSWVRQAPGKGLEWVSSISTGASAYFPDSVKGRFTISRDNAKNSLYLQMNSLRAEDTAVYYCARYTTSTWYHDVWGQGTTVTVSS VL: DIQMTQSPSAMSASVGDRVTITCKASQDIYSYLSWFQQKPGKVPKTLIYRANRLVRGVPSRFSGSGSGQEYTLTISSLQPEDMATYYCLQYDEFPYTFGQGTKLEIKR",,,,no binding (tested: starting from 333.33 nM),0.0163,0.0161,27,
"AM3-ZH6 (antibody, human IgG1, kappa, V domains shown) VH: EVQLVESGGGLVQPGGSLRLSCAASGFTFSSYAMSWVRQAPGKGLEWVSSISTGASAYFPDSVKGRFTISRDNAKNSLYLQMNSLRAEDTAVYYCARITTSTWYMDVWGQGTTVTVSS VL: DIQMTQSPSAMSASVGDRVTITCKASQDIYSYLSWFQQKPGKVPKTLIYRANRLVGGVPSRFSGSGSGQEYTLTISSLQPEDMATYYCLQYDEFPYTFGQGTKLEIKR",,,,no binding (tested: starting from 333.33 nM),0.013,0.012,11,
"H10-hVH4-hVL4 (antibody, human IgG1, kappa, V domains shown, also called H10-VH4VL4) VH: EVQLVESGGGLVQPGGSLRLSCAASGFTFSSYAMSWVRQAPGKGLEWVSSISTGASAYFPDSVKGRFTISRDNAKNSLYLQMNSLRAEDTAVYYCARITTSTWYFDVWGQGTTVTVSS VL: DIQMTQSPSAMSASVGDRVTITCKASQDINSYLSWFQQKPGKVPKTLIYRANRLVDGVPSRFSGSGSGQEYTLTISSLQPEDMATYYCLQYDEFPYTFGQGTKLEIKR",,,,no binding (tested: starting from 333.33 nM),0.0304,0.0144,47,
